From patent US20160312197

Tests used:
Test in all cases: cell_activity
[1] = system: CCR5 ZFN, L7a linker (FokI) (Artificial Sequence)
[2] = system: CCR5 ZFN, L6a linker (FokI) (Artificial Sequence)
[3] = biological target: CCR5 ZFN SBS 8266, wild-type ZC linker (FokI) (Artificial Sequence) (UniProt P14870)
[4] = system: rat IgM-targeted ZFN pair, ZC linkers (Artificial Sequence); details: rat C6 cells
[5] = system: rat IgM-targeted ZFN pair, one L7a linker (Artificial Sequence); details: rat C6 cells
[6] = system: mROSA-targeted ZFN pair, Wt/L7a linkers (Artificial Sequence); details: Neuro2A, mock 0.4
[7] = system: mROSA-targeted ZFN pair, Wt/Wt linkers (Artificial Sequence); details: Neuro2A, mock 0.4
[8] = no cleavage at this spacing, binding not measured

CCR5 ZFN, L7a linker (FokI) (Artificial Sequence), sequence (chain, as listed by the source): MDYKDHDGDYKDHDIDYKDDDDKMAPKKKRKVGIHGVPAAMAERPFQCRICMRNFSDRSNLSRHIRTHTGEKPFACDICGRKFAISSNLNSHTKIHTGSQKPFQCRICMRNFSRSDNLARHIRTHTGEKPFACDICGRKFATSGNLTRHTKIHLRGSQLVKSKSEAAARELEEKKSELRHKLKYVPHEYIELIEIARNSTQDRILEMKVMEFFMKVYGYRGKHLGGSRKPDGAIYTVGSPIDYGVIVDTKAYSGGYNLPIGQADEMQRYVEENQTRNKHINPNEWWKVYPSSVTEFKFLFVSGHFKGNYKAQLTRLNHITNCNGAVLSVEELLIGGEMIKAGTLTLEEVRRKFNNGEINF
CCR5 ZFN, L6a linker (FokI) (Artificial Sequence), sequence (chain, as listed by the source): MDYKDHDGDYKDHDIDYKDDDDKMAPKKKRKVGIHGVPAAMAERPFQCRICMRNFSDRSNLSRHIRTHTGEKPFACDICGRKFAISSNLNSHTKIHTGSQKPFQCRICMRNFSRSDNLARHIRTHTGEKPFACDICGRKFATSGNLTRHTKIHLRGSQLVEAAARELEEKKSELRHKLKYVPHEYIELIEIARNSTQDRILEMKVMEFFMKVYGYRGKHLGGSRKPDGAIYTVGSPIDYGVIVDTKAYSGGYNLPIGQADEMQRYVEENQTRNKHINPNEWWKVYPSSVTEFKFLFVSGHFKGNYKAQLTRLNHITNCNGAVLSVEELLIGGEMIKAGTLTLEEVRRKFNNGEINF
CCR5 ZFN SBS 8266, wild-type ZC linker (FokI) (Artificial Sequence), sequence (P14870 other isoform, or with tags, fused parts or gaps): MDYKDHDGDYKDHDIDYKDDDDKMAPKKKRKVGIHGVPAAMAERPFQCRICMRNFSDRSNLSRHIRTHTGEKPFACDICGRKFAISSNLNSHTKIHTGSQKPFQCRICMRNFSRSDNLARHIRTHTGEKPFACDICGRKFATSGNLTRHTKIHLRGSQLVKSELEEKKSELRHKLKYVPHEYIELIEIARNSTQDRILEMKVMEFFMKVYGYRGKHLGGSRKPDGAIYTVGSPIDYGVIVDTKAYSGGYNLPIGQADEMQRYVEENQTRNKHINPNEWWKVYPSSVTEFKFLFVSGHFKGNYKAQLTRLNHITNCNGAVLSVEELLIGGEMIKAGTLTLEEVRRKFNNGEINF

For CCR5 ZFN sites, 4 bp gap, the activity [1, 8] was 0 % NHEJ, the activity [2, 8] was 0 % NHEJ and the activity ([3]; ZFN pair, average of 2) was 1.2 % NHEJ.

rat IgM target, 6 bp gap gave an activity [4] of 1.93 % NHEJ and an activity [5] of 2.43 % NHEJ.

CCR5 ZFN sites, 8 bp gap showed an activity ([1]; ZFN pair, average of 2) of 6.1 % NHEJ, an activity [2, 8] of 0 % NHEJ and an activity [3, 8] of 0 % NHEJ.

mROSA target, 6 bp gap showed an activity [6] of 7.5 % NHEJ and an activity [7] of 22.6 % NHEJ.

Work on CCR5 ZFN sites, 5 bp gap yielded an activity [1, 8] of 0 % NHEJ, an activity ([2]; ZFN pair, average of 2) of 39.3 % NHEJ and an activity ([3]; ZFN pair, average of 2) of 35 % NHEJ.

CCR5 ZFN sites, 7 bp gap showed an activity ([1]; ZFN pair, average of 2) of 39.6 % NHEJ, an activity ([2]; ZFN pair, average of 2) of 5.1 % NHEJ and an activity [3, 8] of 0 % NHEJ.

Work on CCR5 ZFN sites, 6 bp gap yielded an activity ([1]; ZFN pair, average of 2) of 31.8 % NHEJ, an activity ([2]; ZFN pair, average of 2) of 25.4 % NHEJ and an activity ([3]; ZFN pair, average of 2) of 11.1 % NHEJ.
